Data: US8163700B2, “Inhibitors of myelin-associated glycoprotein (MAG) activity for regulating neural growth and regeneration” (Research Foundation of City University of New York, priority 2002, dated 2012)

T1: Nogo (Homo sapiens, UniProt Q9NQC3, S458P)
T1 sequence (Q9NQC3 1-1192 S458P): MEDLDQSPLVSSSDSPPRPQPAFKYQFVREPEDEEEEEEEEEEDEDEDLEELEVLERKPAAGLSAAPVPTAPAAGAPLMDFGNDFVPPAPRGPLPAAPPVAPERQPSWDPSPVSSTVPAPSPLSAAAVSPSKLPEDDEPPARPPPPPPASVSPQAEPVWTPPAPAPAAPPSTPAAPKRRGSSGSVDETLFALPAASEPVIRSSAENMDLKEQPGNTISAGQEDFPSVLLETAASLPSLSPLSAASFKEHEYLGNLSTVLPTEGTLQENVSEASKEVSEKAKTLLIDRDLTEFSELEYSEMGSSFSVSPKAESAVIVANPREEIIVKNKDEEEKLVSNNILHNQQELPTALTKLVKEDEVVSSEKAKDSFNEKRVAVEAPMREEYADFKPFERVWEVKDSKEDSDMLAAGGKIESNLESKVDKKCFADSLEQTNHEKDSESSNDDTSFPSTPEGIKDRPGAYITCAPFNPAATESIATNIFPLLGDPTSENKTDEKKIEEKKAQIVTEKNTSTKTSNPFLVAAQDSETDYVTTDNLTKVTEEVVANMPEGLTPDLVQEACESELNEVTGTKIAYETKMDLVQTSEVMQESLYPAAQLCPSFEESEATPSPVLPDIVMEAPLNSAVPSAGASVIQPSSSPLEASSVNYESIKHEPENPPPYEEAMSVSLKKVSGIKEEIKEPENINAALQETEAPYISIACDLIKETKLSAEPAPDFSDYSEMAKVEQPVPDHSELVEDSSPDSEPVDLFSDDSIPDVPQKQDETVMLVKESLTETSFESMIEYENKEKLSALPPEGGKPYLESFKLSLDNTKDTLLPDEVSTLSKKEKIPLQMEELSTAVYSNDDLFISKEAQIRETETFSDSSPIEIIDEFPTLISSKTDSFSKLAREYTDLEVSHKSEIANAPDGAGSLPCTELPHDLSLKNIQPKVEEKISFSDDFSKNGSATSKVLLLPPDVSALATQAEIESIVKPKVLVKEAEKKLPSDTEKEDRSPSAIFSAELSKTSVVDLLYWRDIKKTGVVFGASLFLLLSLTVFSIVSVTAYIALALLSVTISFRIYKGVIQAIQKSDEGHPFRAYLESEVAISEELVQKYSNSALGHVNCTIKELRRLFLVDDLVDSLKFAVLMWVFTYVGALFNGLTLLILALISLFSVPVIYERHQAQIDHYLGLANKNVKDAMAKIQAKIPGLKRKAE

T2: NgR (Homo sapiens, UniProt Q9BZR6)
T2 sequence (Q9BZR6 27-447): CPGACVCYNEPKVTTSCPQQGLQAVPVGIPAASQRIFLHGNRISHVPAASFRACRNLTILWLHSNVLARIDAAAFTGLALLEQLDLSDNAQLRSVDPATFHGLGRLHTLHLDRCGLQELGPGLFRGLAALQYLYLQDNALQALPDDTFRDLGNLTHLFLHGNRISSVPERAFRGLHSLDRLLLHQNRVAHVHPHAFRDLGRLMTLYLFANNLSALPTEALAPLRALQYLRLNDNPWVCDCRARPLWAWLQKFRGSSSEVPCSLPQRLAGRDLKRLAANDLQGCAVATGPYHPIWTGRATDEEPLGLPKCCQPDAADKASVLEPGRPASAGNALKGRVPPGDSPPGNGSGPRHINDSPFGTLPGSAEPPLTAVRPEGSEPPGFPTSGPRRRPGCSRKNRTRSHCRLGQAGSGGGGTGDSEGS

B1: MAG: full-length MAG containing all five Ig-like domains, expressed on CHO cells (protein, UniProt P20917 1-627, looked up)
chain: MIFLATLPLFWIMISASRGGHWGAWMPSTISAFEGTCVSIPCRFDFPDELRPAVVHGVWYFNSPYPKNYPPVVFKSRTQVVHESFQGRSRLLGDLGLRNCTLLLSTLSPELGGKYYFRGDLGGYNQYTFSEHSVLDIVNTPNIVVPPEVVAGTEVEVSCMVPDNCPELRPELSWLGHEGLGEPTVLGRLREDEGTWVQVSLLHFVPTREANGHRLGCQAAFPNTTLQFEGYASLDVKYPPVIVEMNSSVEAIEGSHVSLLCGADSNPPPLLTWMRDGMVLREAVAKSLYLDLEEVTPGEDGVYACLAENAYGQDNRTVELSVMYAPWKPTVNGTVVAVEGETVSILCSTQSNPDPILTIFKEKQILATVIYESQLQLELPAVTPEDDGEYWCVAENQYGQRATAFNLSVEFAPIILLESHCAAARDTVQCLCVVKSNPEPSVAFELPSRNVTVNETEREFVYSERSGLLLTSILTIRGQAQAPPRVICTSRNLYGTQSLELPFQGAHRLMWAKIGPVGAVVAFAILIAIVCYITQTRRKKNVTESSSFSGGDNPHVLYSPEFRISGAPDKYESEKQRLGSERRLLGLRGESPELDLSYSHSDLGKRPTKDSYTLTEELAEYAEIRVK
modifications: full-length
notes: full-length MAG containing all five Ig-like domains, expressed on CHO cells

Key:
[1] = biological target: T1, Nogo; conditions: described in the art; cited from earlier work
[2] = biological target: T2, NgR; conditions: described in the art; cited from earlier work
[3] = test system: cerebellar neurons; assay: Neurite outgrowth of cerebellar neurons on CHO cell monolayers expressing MAG or truncated, deleted or chimeric MAG derivatives (FIG. 1); assay type: cell-based; conditions: cerebellar neurons grown overnight on CHO cells expressing the construct, versus control-transfected CHO cells; GAP-43 staining
Method: FIG. 1 Inhibition of neurite outgrowth from cerebellar neurons by truncated MAG or chimeric MAG Cerebellar neurons were isolated (Example 1) and grown overnight on a monolayer of control-transfected CHO cells (clear bar) or a monolayer of CHO cells expressing wild-type MAG or truncated, deleted or chimeric MAG derivatives (grey bars). (See Example 2). Neurons were stained for GAP-43 antigen and neurite length was measured and the average length was calculated for 180-200 neurons (+/−SEM).
Cerebellar neurons were isolated essentially as described in Doherty et al., Nature, 343, pp. 464-66 (1990); Neuron, 5, pp. 209-19 (1990); and Kleitman et al., Culturing Nerve Cells, pp. 337-78, MIT Press, Cambridge, Mass./London, England (G. Banker and K. Goslin, Eds.) (1991). Briefly, for animals up to nine days of age, the cerebellum was removed from two animals, and placed in 5 ml of 0.025% trypsin in PBS, triturated, and incubated for a further 10 minutes (min) at 37° C. […]
Confluent monolayers of control, MAG-, truncated MAG- or chimeric MAG-Sn-expressing CHO cells were established over a 24-hour (h) period in individual chambers of an 8-well tissue culture slide (Lab-Tek). […] The length of the longest neurite for each GAP43-positive neuron was determined using the Biological Detection System image analysis program (Pittsburgh).

| Molecule | inhibition of axonal outgrowth [1] | binding to NgR [2] | inhibition of neurite outgrowth by the expressed MAG construct [3] |
| --- | --- | --- | --- |
| Nogo-66 amino acid residues 31-55: prior-art peptide of Nogo-66 residues 31-55 (hNogo-A residues 1085-1109 of SEQ ID NO: 9) (EELVQKYSNSALGHVNCTIKELRRL; listed as Homo sapiens) | inhibit axonal outgrowth | can bind to NgR |  |
| B1 |  |  | capable of inhibiting neurite outgrowth |
